Assay [1] deals with HA2His6-tagged Arabidopsis ADK (Arabidopsis) (UniProt Q9LZG0).
Assay [2] has the same target. The source holds these as a separate data set.

UniProt Q9LZG0, sequence (Q9LZG0 whole entry): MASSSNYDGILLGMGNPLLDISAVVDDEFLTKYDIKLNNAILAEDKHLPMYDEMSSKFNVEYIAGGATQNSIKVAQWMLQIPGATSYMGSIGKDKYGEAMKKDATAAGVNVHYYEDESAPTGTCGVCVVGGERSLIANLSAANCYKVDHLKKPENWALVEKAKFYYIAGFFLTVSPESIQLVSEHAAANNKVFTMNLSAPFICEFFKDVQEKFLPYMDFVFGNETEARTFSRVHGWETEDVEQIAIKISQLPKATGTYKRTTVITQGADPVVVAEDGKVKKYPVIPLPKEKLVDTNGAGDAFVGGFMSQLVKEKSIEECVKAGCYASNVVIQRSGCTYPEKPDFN

On to “HA2His6-tagged SnRK1 kinase domain (SnRK1-KD; amino acids 1-343) (from UniProt P92958 1-343) (domain or fragment)”, for which the ADK activity against increasing HA2His6-SnRK1-KD:ADK molar ratio, up to 4∶1 in assay [1] was 90 % of maximum. This substance came in with an ADK activity (labeled 5′-AMP from adenosine and γ32P-ATP) with a two-fold molar excess of HA2His6-SnRK1-KD, against ADK+GFP in assay [2] of 6 fold.

Values taken from paper PMC3907550.
